This note sets out measurements from patent US20220259324A1 (MINERVA BIOTECHNOLOGIES, published 2022).

Assay [1] concerns the target T1, Human NME7-AB, also known as NME7AB (recombinant, devoid of the DM10 domain) (human, UniProt Q9Y5B8 92-376).
T1 construct: Recombinant, expressed in E. coli, purified over NTA-Ni and by size exclusion; monomer of about 33 kDa; also called NME-AB
T1 sequence: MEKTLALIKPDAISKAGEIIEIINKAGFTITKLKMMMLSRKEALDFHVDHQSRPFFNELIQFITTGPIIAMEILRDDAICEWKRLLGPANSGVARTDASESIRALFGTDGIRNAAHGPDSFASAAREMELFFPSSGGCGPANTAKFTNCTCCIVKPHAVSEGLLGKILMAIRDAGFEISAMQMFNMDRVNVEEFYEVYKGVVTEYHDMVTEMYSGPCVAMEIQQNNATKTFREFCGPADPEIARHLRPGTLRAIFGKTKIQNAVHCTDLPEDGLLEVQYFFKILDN
The assay is described as follows: ELISA, plate coated with recombinant NME7-AB (FIG. 24).

The target in assay [2] is T1, Human NME7-AB, also known as NME7AB …. The assay is described as follows: sandwich ELISA, HRP signal (FIG. 1). As for the experimental part: The PSMGFR peptide bearing a C-terminal Cysteine (PSMGFR-Cys) was covalently coupled to BSA using Imject Maleimide activated BSA kit (Thermo Fisher). PSMGFR-Cys coupled BSA was diluted to 10 ug/mL in 0.1M carbonate/bicarbonate buffer pH 9.6 and 50 uL was added to each well of a 96 well plate. After overnight incubation at 4° C., the plate was washed twice with PBS-T and a 3% BSA solution was added to block remaining binding site on the well. After 1h at RT the plate was washed twice with PBS-T and NME7, diluted in PBS-T+1% BSA, was added at different concentrations. After 1h at RT the plate was washed 3× with PBS-T and anti-NM23-H7 (B-9, Santa Cruz Biotechnology), diluted in PBS-T+1% BSA, was added at 1/500 dilution. […] After 1h at RT the plate was washed 3× with PBS-T and binding of NME7 was measured at 415 nm using ABTS solution (Pierce). […]
After 1h at RT the plate was washed 3× with PBS-T and His-Tagged PSMGFR peptide (PSMGFR-His) or biotinylated PSMGFR peptide (PSMGFR-biotin), diluted in PBS-T+1% BSA, was added at different concentration. […] After 1h at RT the plate was washed 3× with PBS-T and binding of PSMGFR peptide to NME7 already bound to another PSMGFR peptide (which could not signal by anti-His antibody or by streptavidin) coupled BSA was measured at 415 nm using a ABTS solution (Pierce).

B1: Monoclonal antibody 8F9A4A3 (antibody, V domains shown)
VH: VQLQQSGPELVKPGASVKISCKTSGNTFTEYTMHWVKQSHGKSLEWIGGFNPNNGVTNYNQKFKGKATLTVDKSSSTAYMELRSLTSEDSAVYYCARRYYHSLYVFYFDYWGQGTTLTVSS
VL: ETTVTQSPASLSMAIGEKVTIRCITSTDIDDDMNWYQQKPGEPPKLLISEGNTLRPGVPSRFSSSGYGTDFVFTIENMLSEDVADYYCLQSDNLPLTFGSGTKLEIKR
notes: Mouse monoclonal antibody
With B1, the binding result in assay [1] is recorded as “binds”.

B2: Monoclonal Antibody 5F3A5D4 (antibody, V domains shown)
VH: VQLQQSGPDLVKPGTSVKISCKTSGNTFTEYTMHWVKQSHGKSLEWIGGFNPNNGVTNYNQKFKGKATLTVDKSSSTAYMELRSLTSEDSAVYYCARRYYHSTYVFYFDSWGQGTTLTVSS
VL: DIQMTQTTSSLSASLGDRVTISCSASQGISNYLNWFQQKPDGTIKLLIYYTSSLHSGVPSRFSGSGSGTDYSLTISNVEPEDIATYYCQQYSKLPYTFGGGTKLEIKR
notes: Mouse monoclonal antibody
Turning to B2, the binding result in assay [1] is reported as “binds”.

B3: Monoclonal Antibody 8F9A5A1 (antibody, V domains shown)
VH: IQLVQSGPELKKPGETVKISCKASGYTFTNYGMNWVKQAPGKGLKWMGWINTYTGEPTYVDDFKGRFAFSLETSATTAYLQINNLKNEDTSTYFCARLRGIRPGPLAYWGQGTLVTVSA
VL: EILLTQSPAIIAASPGEKVTITCSASSSVSYMNWYQQKPGSSPKIWIYGISNLASGVPARFSGSGSGTSFSFTINSMEAEDVATYYCQQRSSYPPTFGGGTKLEIKR
notes: Mouse monoclonal antibody
Take B3: in assay [1], the binding result is recorded as “binds”.

B4: PSMGFR peptide (MUC1* extra cellular domain peptide) (peptide)
peptide: GTINVHDVETQFNQYKTEAASRYNLTISDVSVSDVPFPFSAQSGA
notes: Synthetic peptide immobilized on ELISA plates; also called MUC1* peptide; FLR
Regarding B4, in assay [2], the binding result was “binds”.
